Assay: folding stability dG unfold (combined trypsin and chymotrypsin); higher = more stable
Procedure: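 Folding stability of de novo designed mini-proteins (<80 aa, no Cys; designed by TrROS, TrMRF, ProteinMPNN and the joint model) was measured by cDNA display proteolysis with trypsin and chymotrypsin. Each protease was used at 11 concentrations in a threefold dilution series plus a no-protease condition. K50 was inferred by Bayesian fitting of sequencing counts, and dG unfold was derived against a sequence-predicted unfolded-state K50 (Tsuboyama et al. method). Sequences shown include variable-length N-terminal GS-type padding (SAGGSAGG...) inside a display construct carrying a PA tag. Rows were kept only if the AF2 dimer inter-PAE was >15, to exclude likely homo-oligomers.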

In the case of “SAGMSTSSPTAKSTVLETSEEGNTVTKKVKVTTPSKDSSGNSSTTTTTTTITTELKGKPEPKTPEYYAKSAG [r5_70_JUSTAS]”, the “folding stability dG unfold” value is reported as less than -1 kcal/mol.
For “SAGSELLEKFPNVKVEEYEEEIEFSPEKKEEKEEVDETDGNTITYKKIEVLPEGKAKVKIYTAKLPEVSAGG [r19_125_JUSTAS]”, the “folding stability dG unfold” value was less than -1 kcal/mol.
With “SAGGSAGGSAGDKPIKIFWNPEFPGRVYIKTPDKERPVPLNDLEELGIDEVVPMEEAMEQSAGGSAGGSAGG [r17_88_TrROS]” the “folding stability dG unfold” value was less than -1 kcal/mol.
In the case of “SAGGSAGGSAGGMVSISVSEDPATGTYTVTATRTGAPRTVTVPVGASEAEARARVEAALSAGGSAGGSAGGS [r10_192_JUSTAS]”, the “folding stability dG unfold” value is reported as less than -1 kcal/mol.
With “SAPPLPPDAVVETESEPVGVDPTENGTLTYYRRTVRVTLPDGSLTLESLVFRDPATGSSTSSVLRETALSAG [r14_293_JUSTAS]” the “folding stability dG unfold” value was less than -1 kcal/mol.
For “SAGGSGMAEAEALAAELAAATEKTPLGRTATVSVDTEVRPETGLTLLTVTTTGPGAPTTTPTTLPGRSAGGS [r16_812_JUSTAS]”, the “folding stability dG unfold” value was less than -1 kcal/mol.
With “SAGMTINNTGSVEELKKLPDVVEIEKEGNKYTIKMPGETVEVELNPPKPVPKGPPYTSESEKKKKSEKSSAG [r5_2_JUSTAS]” the “folding stability dG unfold” value was less than -1 kcal/mol.
With “SAGPPEPITWKIRNPKNGKKRKIQIWQPDEQMAVQIRDPNDGKPRREIPMPLEEARDLLKSDGFEVEPVSAG [r5_291_TrROS]” the “folding stability dG unfold” value was less than -1 kcal/mol.
With “SAGGMKTVVTTEPATFDATDPNTGVPIGTVTIGPVVTTKPPNAVTTHYTFRIGGTEVATSTTTNPGLASAGG [r13_758_JUSTAS]” the “folding stability dG unfold” value was less than -1 kcal/mol.
With “YEIKDVEFPPYEHPGQEYPMFKIEVKDENGKPKKKVYINPNSGQLIPPGQSLEDMPMPPPFRKFAKELADES [r1_354_TrROS]” the “folding stability dG unfold” value was less than -1 kcal/mol.
With “SAGGSAGGSAGGTISFPTSSGLIKVEDMTIEEAKEKLKKENPNAKVIKLPTPNVYLIEVKSAGGSAGGSAGG [r7_370_JUSTAS]” the “folding stability dG unfold” value was less than -1 kcal/mol.
In the case of “SAGGSAGGSAGKKIEIDEANPEENMYRISFPDKRTHQFDSAEDLKEQIPPGIPVEIEPLKSAGGSAGGSAGG [r17_295_TrROS]”, the “folding stability dG unfold” value is reported as less than -1 kcal/mol.
In the case of “SAGGSAGGPPPLIVTIKLEHKREKPNGEPEKRKHEIIVDAPNEQADKLAKKMPPDNVEDVEIAKSAGGSAGG [r6_985_TrROS]”, the “folding stability dG unfold” value is reported as less than -1 kcal/mol.
In the case of “SAGGSAGGMITDADGNAFEVASAEPFELANGEPVIRFRFKGSGEIRTVPAADIPDGIPEEAKFESAGGSAGG [r6_370_TrMRF]”, the “folding stability dG unfold” value is reported as less than -1 kcal/mol.
With “SAGGSAGGSAGGSPFTIRNPNGMQVRIDDFDPEEGKVKIEIEMPNKPVEYPIPLDDIIFSAGGSAGGSAGGS [r4_110_TrROS]” the “folding stability dG unfold” value was less than -1 kcal/mol.
For “SAGGSAATVVDPSTGSTYTFTPEGSGYRITRTLVTPDPTSDAVSTAPTTELLPPSEIPPELLARLSSAGGSA [r15_703_JUSTAS]”, the “folding stability dG unfold” value was less than -1 kcal/mol.
In the case of “SAGGSAGGSAGMPFKITKVTPDGKITIYDGGNPITIPPGSDHIKIEFGGGTKEIKIPPGMSAGGSAGGSAGG [r11_647_TrROS]”, the “folding stability dG unfold” value is reported as less than -1 kcal/mol.
With “SAGGSAGGSAGGPPFQIHIRDKGEERTIPVDSPDDIKELLEEKGAEIKDVHPNSGTITVKSAGGSAGGSAGG [r7_726_TrROS]” the “folding stability dG unfold” value was less than -1 kcal/mol.
In the case of “WIRIPNGQPFRIKAKMKNPDGDDRKHTGKIPMEELGQKNGRPITPEDILDEIKEEARDHGAPVEDVEIEYYS [r1_338_TrROS]”, the “folding stability dG unfold” value is reported as less than -1 kcal/mol.
In the case of “SAGGSAGGSAGGEKTIFIPPDNPEKLADEAQKKGLTVEREPNSWLKVNGKKIRIIIMPPSAGGSAGGSAGGS [r10_930_TrROS]”, the “folding stability dG unfold” value is reported as less than -1 kcal/mol.
In the case of “SAGGSAGGSAGGGAKPNQPVKVKIKYELLREEKELLPDGSVKTKKEVKVEIEGYEDADFKSAGGSAGGSAGG [r7_919_TrMRF]”, the “folding stability dG unfold” value is reported as less than -1 kcal/mol.
In the case of “SAGGSAGGSMPVTRPVATLPGPVTLYETTSPGERRLVRVTETPLPTPEPRTEVRLTVEVRPVGSAGGSAGGS [r12_353_JUSTAS]”, the “folding stability dG unfold” value is reported as less than -1 kcal/mol.
With “SAGGSAGGNTITLPLPDGRKLTIDMHPNPDGNMYVNIDVQTPGKEKEITVPMDNPAIREAVKELSAGGSAGG [r6_607_TrROS]” the “folding stability dG unfold” value was less than -1 kcal/mol.
For “SSLDDLSPEQAVDQAKFMVRMIRESRDNGKPEQYPKMINMLRRMASSAPPPDRKAVKEVLEEFKIPPEWFSA [r9_182_TrROS]”, the “folding stability dG unfold” value was less than -1 kcal/mol.
